This passage reports activity (indels per 1 million high quality reads) results from patent US20150307889.

Data set [1] concerns zmPPL_1360-r23a1 ZFN monomer (synthetic construct). Kind of data set: cell_activity. The following applies: ZFN pair with zmPPL_1360-30a1 in bombarded haploid maize callus; control 5.0; locus target SEQ 32.
The subject of data set [2] is zmPPL_1360-30a1 ZFN monomer (synthetic construct). Nature of the data set: cell_activity. The following applies: ZFN pair with zmPPL_1360-r23a1 in bombarded haploid maize callus; control 5.0; locus target SEQ 32.

“ACTCCGTATGCGAAGGCA (double strand) [zmPPL_1360-r23a1 half-site (PPL1 locus)]”: the activity (indels per 1 million high quality reads) in data set [1] was 40. As to “TTCGCGGTGGGACACTTG (double strand) [zmPPL_1360-30a1 half-site (PPL1 locus)]”, the activity (indels per 1 million high quality reads) in data set [2] came out at 40.
